Patent US10618964B2, “Nanobody against IL-6R” (Ablynx N.V., dated 2020)
Where a chain is given by its changes, count along the chain named.

B1: IL6RPMP104E4 (VHH)
VHH: EVQLVESGGGTVQAGGSLKLSCAASGRTFTNYAMGWFRQAPGKEREFVAAIAYATHFADSVKGRFTISRGNAKNTVYLQMNSLKPEDTAVYYCAADLSLSKMVSKITSDMDYWGKGTLVTVSS
B2: IL6RPMP101G1 (VHH)
VHH: EVQLVESGGGLVQPGGSLRLSCAASGGTLDYYAIGWFRQAPGKEREGVSCISSSDGSTYYASSVKGRFTVSRDKAKNTVYLQMNSLKPEDTAVYYCAFVFTTAQAMGVPNNPYEYDFWGQGTQVTVSS
B3: IL6RPMP102G3 (VHH)
VHH: EVQLVESGGGLVQAGGSLRLSCAASGSIDRINAMGWYRQAPGKQRDFLAVITDGDKTLYADSVKGRFTISNDNAKNTVYLQMNSLKPEDTAVYYCNAYQAGWGDYWGQGTQVTVSS
B4: IL6RPMP106D6 (VHH)
VHH: EVQLVESGGGLVQAGGSLRLSCAASGFTFDDYAIGWFRQAPGKEREGVSCMISSDGSTYYADSVKGRFTISSDNAKNTVYLQMDSLKPEDTAVYYCAADLSLYGCYVGDRDLYDYDYWGQGTQVTVSS
B5: IL6RPMP107B4 (VHH)
VHH: EVQLVESGGGLVQAGGSLRLSCVASGLRLNMHRMGWFRQAPGKEREFVARIFTDDGDSYYADSVQGRFTISGDNAKNTVYLQMNSLKPEDTGVYFCAAGYMSGAESPIGYDNWGQGTQVTVSS
B6: IL6RPMP103B2 (VHH)
VHH: EVQLVESGGGLVQPGGSLRLSCAASGSTFSINMMAWYCQAPGKQRELVASISSGGGINYADSVKGRFTISRDYAENSVDLQMNSLKPEDTAVYYCNARGTYLNGDHYSTNYNSWGQGTQVTVSS
B7: IL6RPMP108C10 (VHH)
VHH: EVQLVESGGGLVQPGGSLRLSCTASGRTFSDYDMGWFRQAPGKERECVAVIDTNGDNTLTVGSVKGRFAISRDNAKNTVYLQMNSLLPEDTAVYTCAAGAWSSLRSTAANYWGQGTQVTVSS
B8: IL6RPMP101B2 (VHH)
VHH: B7 VHH with P14A, S30T, C47V, V50I, R72S, S103A, S106R, T107S, A108V
B9: IL6RPMP101G3 (VHH)
VHH: B7 VHH with P14A, V50I, T60I, R72S, A100V, S106H
B10: IL6RPMP101D6 (VHH)
VHH: B7 VHH with P14A, V50I, T60I, R72S, A100V, S106H
B11: IL6RPMP101A3 (VHH)
VHH: B7 VHH with P14A, S17P, S30T, C47V, V50I, R72S, S103A, S106R, T107S, A108V
B12: IL6RPMP120C10 (VHH)
VHH: EVQLVESGGGLVQAGGSLSLSCATSGRTISDDTMAWFRQAPGKEREFVAIITFNGARTHYSDSVRDRFTISRDNAKNTVYLQMNSLKSEDTAVYYCAASTKYYSSTYNYIHPAFYDIWGQGTQVTVSS

target: T1, native soluble IL-6R in human plasma (human, UniProt P08887); assay: ELISA 1, periplasmic extract; competitor IL-6; human plasma
Procedure: (§1) In this ELISA, plasma was used as a source of native soluble IL-6R. By this assay, we aimed to confirm the alphascreen results and to get a view on the cross-reactivity of the clones towards cynomolgous IL-6R. Human plasma (ELISA 1 and ELISA 3) or cynomolgous plasma (ELISA 2) were pre-incubated with a dilution of the periplasmic extract of the clones together with human IL-6 (50 ng/mL). Subsequently, plasma soluble IL-6R was captured on a B-N12 coated plate and bound IL-6 was detected using anti-IL-6 antibody BAF206 and streptavidin-HRP (ELISA 1 and ELISA 2). The ELISA signal dropped when the Nanobody clone could compete with IL-6 for binding to soluble IL-6R. ELISA 3 was a parallel ELISA in which the detection antibody was replaced by anti-IL-6R antibody BAF227 to exclude false positive competitors, which actually compete with B-N12 (e.g. family 2). Depicted in Table C-5 is the ratio of the OD450 value of the test sample versus the blank OD450 (mock sample). Clones were ordered based on ELISA 1 data.

Row | OD450 ratio sample/blank | Binder
1 | 1.34 | B1
2 | 0.148 | B2
3 | 1.76 | B3
4 | 1.27 | B4
5 | 1.2 | B5
6 | 1.76 | B6
7 | 1.07 | B7
8 | 1.09 | B8
9 | 1.08 | B9
10 | 1.09 | B10
11 | 1.08 | B11
12 | 0.139 | B12

target: soluble IL-6R in cynomolgous plasma (cynomolgus monkey, UniProt A0A2K5WN54); assay: ELISA 2, periplasmic extract; competitor IL-6; cyno plasma
Procedure: as §1

Row | OD450 ratio sample/blank | Binder
13 | 0.838 | B1
14 | 0.0937 | B2
15 | 1.32 | B3
16 | 1.13 | B4
17 | 0.918 | B5
18 | 0.81 | B6
19 | 0.795 | B7
20 | 0.727 | B8
21 | 0.773 | B9
22 | 0.731 | B10
23 | 0.687 | B11
24 | 0.0351 | B12

target: T1, native soluble IL-6R in human plasma; assay: ELISA 3, periplasmic extract; competitor BN-12; human plasma
Procedure: as §1

Row | OD450 ratio sample/blank | Binder
25 | 1.03 | B1
26 | 0.639 | B2
27 | 0.968 | B3
28 | 1 | B4
29 | 1.04 | B5
30 | 1.02 | B6
31 | 1.04 | B7
32 | 0.909 | B8
33 | 0.892 | B9
34 | 0.948 | B10
35 | 0.946 | B11
36 | 1.01 | B12
